Test results published in publication PMC8197028.

Tests used:
Assay in all cases: NMR
[1] = tested on: Asp44; settings: isolated peptide fragments, largely unstructured; cited from earlier work
[2] = target: Glu72 (UniProt position 822, QHLKKEKGLF-); settings: native (folded) state
[3] = target: Asp46 (UniProt position 796, -LSDEDFKAVF); settings: native (folded) state
[4] = target: Glu45 (UniProt position 795, --LSDEDFKAV); settings: native (folded) state
[5] = target: Asp44 (UniProt position 794, ---LSDEDFKA); settings: native (folded) state; cited from earlier work
[6] = fully folded over the whole pH range

| Substance | pKa [1] | pKa [2, 6] | pKa [3, 6] | pKa [4, 6] | pKa ([2]; cited from earlier work) | pKa [5] | pKa ([3]; cited from earlier work) | pKa ([4]; cited from earlier work) |
| --- | --- | --- | --- | --- | --- | --- | --- | --- |
| HP36 peptide fragment, residues 41-53 (not stated in the article (Gallus gallus inferred)) | 4.00 |  |  |  |  |  |  |  |
| Villin headpiece helical subdomain HP36 D44N (not stated in the article (Gallus gallus inferred); D44N) |  | 4.32±0.02 | 3.43±0.05 | 3.86±0.02 |  |  |  |  |
| Villin headpiece helical subdomain HP36 D44N/K48M (not stated in the article (Gallus gallus inferred); D44N;K48M) |  | 4.37±0.03 | 3.49±0.08 | 4.39±0.05 |  |  |  |  |
| Villin headpiece helical subdomain HP36 K48M (not stated in the article (Gallus gallus inferred); K48M) |  |  |  |  | 4.41±0.03 | 3.23±0.07 | 3.38±0.05 | 4.68±0.09 |
| Villin headpiece helical subdomain HP36, wild type (not stated in the article (Gallus gallus inferred)) |  |  |  |  | 4.37±0.03 | 3.04±0.12 | 3.44±0.11 | 3.95±0.02 |
